# Test system: Escherichia coli TOP10
# Assay: shrunken log2 fold change of peptide-encoding DNA abundance (4.5 h post-induction vs induction); higher = less antimicrobial activity (less host growth inhibition)
# Conditions: time post-induction: 4.5 h; library: site-saturation at positions 5, 18, 19, 20
# 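Note: peptides expressed intracellularly from a pBAD plasmid library in pooled LB shake-flask culture, induced with 0.3% L-arabinose, DNA abundance read by NGS, three biological replicates, DESeq2 with apeglm shrinkage.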
row,Sequence,shrunken log2 fold change
1,RRIRDRPPRLPRPRPRPAGIPRP,-0.00461
2,RRIRSRPPRLPRPRPRPQNNPRP,-0.573
3,RRIRCRPPRLPRPRPRPQMGPRP,-0.273
4,RRIRRRPPRLPRPRPRPPRAPRP,1.17
5,RRIRERPPRLPRPRPRPDKHPRP,0.236
6,RRIRIRPPRLPRPRPRPSQTPRP,-0.0359
7,RRIRFRPPRLPRPRPRPLPTPRP,0.336
8,RRIRGRPPRLPRPRPRPIAVPRP,0.892
9,RRIRFRPPRLPRPRPRPVDFPRP,-0.452
10,RRIRVRPPRLPRPRPRPWWNPRP,-0.0063
11,RRIRIRPPRLPRPRPRPTGTPRP,-0.109
12,RRIRDRPPRLPRPRPRPKKDPRP,0.199
13,RRIRRRPPRLPRPRPRPTVSPRP,0.119
14,RRIRDRPPRLPRPRPRPMQPPRP,0.0977
15,RRIRLRPPRLPRPRPRPCHWPRP,-0.11
16,RRIRIRPPRLPRPRPRPDWDPRP,-0.318
17,RRIRWRPPRLPRPRPRPKIFPRP,-0.249
18,RRIRWRPPRLPRPRPRPGKVPRP,-0.132
19,RRIRSRPPRLPRPRPRPELRPRP,0.382
20,RRIRFRPPRLPRPRPRPWEYPRP,0.0231
21,RRIRHRPPRLPRPRPRPPANPRP,0.478
22,RRIRDRPPRLPRPRPRPWNPPRP,-0.586
23,RRIRCRPPRLPRPRPRPDRMPRP,-0.139
24,RRIRMRPPRLPRPRPRPCPAPRP,0.574
25,RRIRWRPPRLPRPRPRPIVRPRP,0.326

row,Sequence,shrunken log2 fold change
1,RRIRRRPPRLPRPRPRPDNEPRP,0.207
2,RRIRQRPPRLPRPRPRPKIWPRP,0.362
3,RRIRMRPPRLPRPRPRPGFAPRP,1.35
4,RRIRPRPPRLPRPRPRPNCVPRP,-0.0731
5,RRIRGRPPRLPRPRPRPLGQPRP,0.756
6,RRIRERPPRLPRPRPRPMDLPRP,-0.199
7,RRIRWRPPRLPRPRPRPRLFPRP,0.432
8,RRIRFRPPRLPRPRPRPLTWPRP,-0.163
9,RRIRQRPPRLPRPRPRPLFGPRP,0.107
10,RRIRQRPPRLPRPRPRPPKIPRP,0.156
11,RRIRSRPPRLPRPRPRPITAPRP,-0.0161
12,RRIRPRPPRLPRPRPRPVIEPRP,-0.0347
13,RRIRRRPPRLPRPRPRPSFIPRP,-0.391
14,RRIRIRPPRLPRPRPRPIWQPRP,0.182
15,RRIRIRPPRLPRPRPRPEDVPRP,-0.0939
16,RRIRDRPPRLPRPRPRPLHHPRP,-0.314
17,RRIRFRPPRLPRPRPRPILAPRP,0.0156
18,RRIRQRPPRLPRPRPRPGRPPRP,0.121
19,RRIRVRPPRLPRPRPRPSYVPRP,-0.66
20,RRIRLRPPRLPRPRPRPIFYPRP,-0.223
21,RRIRNRPPRLPRPRPRPSEPPRP,-0.0146
22,RRIRARPPRLPRPRPRPVSWPRP,0.813
23,RRIRVRPPRLPRPRPRPRGNPRP,0.378
24,RRIRWRPPRLPRPRPRPFDMPRP,-0.105
25,RRIRERPPRLPRPRPRPEPYPRP,-0.0697

row,Sequence,shrunken log2 fold change
1,RRIRWRPPRLPRPRPRPRNNPRP,-0.162
2,RRIRRRPPRLPRPRPRPVSEPRP,0.34
3,RRIRHRPPRLPRPRPRPGGPPRP,-0.355
4,RRIRSRPPRLPRPRPRPFCFPRP,-0.069
5,RRIRNRPPRLPRPRPRPDHMPRP,-0.00141
6,RRIRRRPPRLPRPRPRPNREPRP,0.232
7,RRIRGRPPRLPRPRPRPKMIPRP,0.425
8,RRIRVRPPRLPRPRPRPFLKPRP,-0.602
9,RRIRPRPPRLPRPRPRPSYQPRP,-0.493
10,RRIRTRPPRLPRPRPRPDDGPRP,0.02
11,RRIRFRPPRLPRPRPRPYHGPRP,-0.114
12,RRIRSRPPRLPRPRPRPQIWPRP,-0.167
13,RRIRMRPPRLPRPRPRPQFWPRP,0.245
14,RRIRLRPPRLPRPRPRPNCCPRP,-0.0382
15,RRIRSRPPRLPRPRPRPNAQPRP,0.0609
16,RRIRSRPPRLPRPRPRPIMTPRP,0.164
17,RRIRFRPPRLPRPRPRPFVGPRP,-0.0219
18,RRIRKRPPRLPRPRPRPCAHPRP,0.0754
19,RRIRKRPPRLPRPRPRPDTNPRP,0.335
20,RRIRCRPPRLPRPRPRPSNEPRP,-0.379
21,RRIRGRPPRLPRPRPRPVCCPRP,0.957
22,RRIRYRPPRLPRPRPRPLGKPRP,-0.192
23,RRIRPRPPRLPRPRPRPIGYPRP,-0.0758
24,RRIRMRPPRLPRPRPRPRTRPRP,1.09
25,RRIRRRPPRLPRPRPRPQWVPRP,0.279

row,Sequence,shrunken log2 fold change
1,RRIRSRPPRLPRPRPRPIAGPRP,-0.00669
2,RRIRRRPPRLPRPRPRPVKVPRP,-0.1
3,RRIRFRPPRLPRPRPRPLVGPRP,-0.0413
4,RRIRLRPPRLPRPRPRPVKQPRP,-0.0196
5,RRIRCRPPRLPRPRPRPNYWPRP,-0.326
6,RRIRTRPPRLPRPRPRPGSPPRP,0.0989
7,RRIRKRPPRLPRPRPRPAMLPRP,0.292
8,RRIRHRPPRLPRPRPRPYWDPRP,-0.849
9,RRIRWRPPRLPRPRPRPDMSPRP,-0.121
10,RRIRDRPPRLPRPRPRPAPHPRP,0.852
11,RRIRCRPPRLPRPRPRPWHDPRP,-0.142
12,RRIRNRPPRLPRPRPRPHMTPRP,0.0432
13,RRIRDRPPRLPRPRPRPWIPPRP,-0.0565
14,RRIRRRPPRLPRPRPRPKVQPRP,-0.0356
15,RRIRSRPPRLPRPRPRPWAKPRP,-0.00197
16,RRIRDRPPRLPRPRPRPSRVPRP,0.0593
17,RRIRPRPPRLPRPRPRPMATPRP,0.323
18,RRIRHRPPRLPRPRPRPQSFPRP,0.0133
19,RRIRCRPPRLPRPRPRPYRFPRP,-0.746
20,RRIRHRPPRLPRPRPRPNAAPRP,0.299
21,RRIRCRPPRLPRPRPRPFFMPRP,-0.201
22,RRIRQRPPRLPRPRPRPNSMPRP,-0.25
23,RRIRERPPRLPRPRPRPGPIPRP,0.0264
24,RRIRPRPPRLPRPRPRPATVPRP,-0.0314
25,RRIRLRPPRLPRPRPRPPIPPRP,0.316

row,Sequence,shrunken log2 fold change
1,RRIRRRPPRLPRPRPRPPHAPRP,1.52
2,RRIRVRPPRLPRPRPRPNSLPRP,0.0679
3,RRIRHRPPRLPRPRPRPANTPRP,-0.0313
4,RRIRKRPPRLPRPRPRPDNIPRP,-0.0306
5,RRIRRRPPRLPRPRPRPTVYPRP,-0.135
6,RRIRFRPPRLPRPRPRPSMQPRP,-0.209
7,RRIRARPPRLPRPRPRPRRCPRP,0.519
8,RRIRKRPPRLPRPRPRPDAFPRP,0.00489
9,RRIRLRPPRLPRPRPRPQELPRP,-0.0432
10,RRIRLRPPRLPRPRPRPHLNPRP,0.141
11,RRIRARPPRLPRPRPRPSCYPRP,0.0075
12,RRIRSRPPRLPRPRPRPLMDPRP,-0.00235
13,RRIRTRPPRLPRPRPRPWLHPRP,-0.166
14,RRIRIRPPRLPRPRPRPKRLPRP,0.181
15,RRIRMRPPRLPRPRPRPLMMPRP,0.452
16,RRIRARPPRLPRPRPRPCSVPRP,0.0736
17,RRIRVRPPRLPRPRPRPDVFPRP,-0.0779
18,RRIRKRPPRLPRPRPRPLWYPRP,-0.511
19,RRIRPRPPRLPRPRPRPGWIPRP,-0.0354
20,RRIRKRPPRLPRPRPRPPPYPRP,0.249
21,RRIRPRPPRLPRPRPRPRQTPRP,0.338
22,RRIRKRPPRLPRPRPRPWYSPRP,-0.234
23,RRIRTRPPRLPRPRPRPKYEPRP,-0.144
24,RRIRCRPPRLPRPRPRPQAEPRP,0.215
25,RRIRNRPPRLPRPRPRPWFRPRP,0.0475

row,Sequence,shrunken log2 fold change
1,RRIRWRPPRLPRPRPRPLPQPRP,0.248
2,RRIRFRPPRLPRPRPRPCPFPRP,-0.988
3,RRIRDRPPRLPRPRPRPIIVPRP,0.0216
4,RRIRQRPPRLPRPRPRPSFCPRP,0.462
5,RRIRCRPPRLPRPRPRPEYVPRP,-0.244
6,RRIRRRPPRLPRPRPRPFVLPRP,-0.0834
7,RRIRKRPPRLPRPRPRPLQEPRP,0.0634
8,RRIRVRPPRLPRPRPRPAHEPRP,0.205
9,RRIRHRPPRLPRPRPRPVRVPRP,0.0942
10,RRIRQRPPRLPRPRPRPTEDPRP,0.0148
11,RRIRSRPPRLPRPRPRPFAKPRP,-0.136
12,RRIRSRPPRLPRPRPRPAWSPRP,0.58
13,RRIRSRPPRLPRPRPRPPAAPRP,1.1
14,RRIRKRPPRLPRPRPRPNYTPRP,-0.281
15,RRIRDRPPRLPRPRPRPEYNPRP,-0.116
16,RRIRRRPPRLPRPRPRPRVDPRP,0.00278
17,RRIRFRPPRLPRPRPRPCTQPRP,-0.549
18,RRIRNRPPRLPRPRPRPADHPRP,-0.0958
19,RRIRNRPPRLPRPRPRPIPGPRP,-0.0332
20,RRIRERPPRLPRPRPRPQTFPRP,-0.0695
21,RRIRNRPPRLPRPRPRPDHLPRP,-0.0163
22,RRIRQRPPRLPRPRPRPMYTPRP,-0.639
23,RRIRNRPPRLPRPRPRPWIFPRP,-0.201
24,RRIRARPPRLPRPRPRPFSKPRP,-0.301
25,RRIRPRPPRLPRPRPRPRASPRP,0.548

# From the supplement of paper PMC9112550, “Optimization of the antimicrobial peptide Bac7 by deep mutational scanning” (BMC Biology, 2022)
